± gives the standard deviation of the averaged measurements.
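Further: ATP exposure 15 min at 22 °C before imaging.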

The subject of the data set is ATP. Description: switch fluorescence ratio, 500 uM ATP over buffer (Cy3 cluster intensity, sum of 5 cycles each) (fold (ratio)); higher = stronger signal-on switching upon ATP binding; sequences stand for … in TCGTCGGCAGCGTCAGATGTGTATAAGAGACAGTTTTTTTTTTTTTTTTTTTTTTTTT…TC. The conditions noted are these: aptamer strand: ATP DNA aptamer (quencher-CACCTGGGGGAGTATTGCGGAGGAAGG + anchor), 100 nM annealed; ATP concentration: 500 uM. The method, boiled down: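 For every switch-domain sequence, the fluorescence ratio is the mean of per-cluster values, each being summed target-cycle Cy3 intensity over summed buffer-cycle Cy3 intensity. Clusters outside 100-1000 RFU were excluded. On a modified Illumina MiSeq flow-cell, the Cy3-labelled switching-strand clusters were annealed to 100 nM quencher-labelled ATP aptamer, imaged in selection buffer and then after 15 min with 500 uM ATP at 22 °C. Five such cycles were run, with NaOH stripping and re-annealing between them.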
Consider GTAGGGACCG, for which the switch fluorescence ratio worked out at 0.909 ± 0.025. On to GAATGGCCTT, for which the switch fluorescence ratio came out at 0.9949 ± 0.0072. As to CCCATCTTTT, the switch fluorescence ratio came to 1 ± 0.0025. The value for TCGAAGTTGT was 1.01 ± 0.022; that for ATATAGGCTG was 1.01 ± 0.018. On to TGCTTTGCCT, for which the switch fluorescence ratio is 1.03 ± 0.013. Regarding TGGGATCGAG, the switch fluorescence ratio stood at 0.9719 ± 0.0032. Regarding CGTCATTTAC, the switch fluorescence ratio turned out to be 1.63 ± 0.074. On to TAGGTTGTCG, for which the switch fluorescence ratio is 0.973 ± 0.077. The value for CTTTATAGGC was 1.04 ± 0.017; that for GGTCGAAGGG was 0.985 ± 0.051. With ATAATGAGTC the figure was 0.961 ± 0.013. On to ATTTATGTGT, for which the switch fluorescence ratio was found to be 1.01 ± 0.057. The value for AGCAATTGTG was 1.04 ± 0.029. As for TCGGTTTTAA, the switch fluorescence ratio amounted to 1.01 ± 0.036. For TTATCTTTGT, the switch fluorescence ratio was 0.9758 ± 0.007. The value for ATTATTGTGT was 0.9903 ± 0.0075. TTTAAAGCTG: the switch fluorescence ratio worked out at 1.06 ± 0.064.

As to TCTAGTTAGG, the switch fluorescence ratio was determined as 1.0115 ± 0.00098. With TATCTTACCA the figure was 0.988 ± 0.032; with GGTAGGGCGG, 1.01 ± 0.068. As for ATAGGCGCGC, the switch fluorescence ratio was 1.04 ± 0.014. The value for GCTTTTGGCA was 1.019 ± 0.0057.

TTTCATACGA: the switch fluorescence ratio was found to be 1.01 ± 0.045. On to TGACGAGCGG, for which the switch fluorescence ratio came to 1.04 ± 0.061.

Consider AGTAAGGGTT, for which the switch fluorescence ratio was 1 ± 0.048.

Regarding ATGGTGAGTT, the switch fluorescence ratio came out at 1 ± 0.015. With CGCATTTGCT the figure was 1.15 ± 0.07; with TTGTGCTATT, 1.26 ± 0.32. With CATTATTGGC the figure was 1.06 ± 0.025; with AAAAAGGAAT, 0.982 ± 0.011. For ATTAATTTTA, the switch fluorescence ratio was 1.02 ± 0.041. Regarding TGTCGGGCAG, the switch fluorescence ratio is 0.9843 ± 0.0038. The value for TCTAAGTTTT was 0.97 ± 0.01; that for GCAGGATGAA was 0.97 ± 0.042; that for AGTAGGGCGT was 0.9964 ± 0.0088.

Regarding GGATTTTTTA, the switch fluorescence ratio was 1.006 ± 1.6e-05. The value for TGGGAAAATC was 1.63 ± 0.81; that for AAAGGGTAGA was 1.04 ± 0.019. The value for TAGAGAGGGC was 1.011 ± 0.0093; that for GAGTTCGTTT was 1.02 ± 0.011; that for ATAAAAGGCG was 1.021 ± 0.0061. The value for ACACAAGGCT was 1.03 ± 0.037; that for GTATTATAGG was 1.006 ± 0.0042; that for GGGGCAGGAG was 1.01 ± 0.06. Regarding TTGGTTCCAT, the switch fluorescence ratio worked out at 1.02 ± 0.017.

With TGTTTCATTG, the switch fluorescence ratio is 0.976 ± 0.018. For the sequence TATCACCGGC, the switch fluorescence ratio amounted to 1.09 ± 0.031.

On to GTAAGGGGTT, for which the switch fluorescence ratio turned out to be 1.033 ± 0.0064. As for TATAAACTGT, the switch fluorescence ratio is 0.993 ± 0.015. With AGCCTGACTG, the switch fluorescence ratio was determined as 1.12 ± 0.033. CGCTGTGGGA: the switch fluorescence ratio amounted to 0.973 ± 0.053. As to CTGACAGCGG, the switch fluorescence ratio worked out at 1.06 ± 0.033. With CAGAAGGGTG the figure was 1.02 ± 0.011; with TGAGGGTGGG, 1.01 ± 0.058; with CTGGTCAGGG, 0.988 ± 0.013.

Consider TTGAAGGGTC, for which the switch fluorescence ratio was 0.981 ± 0.057. With GGTGACAGCT the figure was 0.979 ± 0.023; with TTTAGAATCC, 1.03 ± 0.019.

As for CCTGCATTTT, the switch fluorescence ratio worked out at 1.3 ± 0.33. In the case of TTTAGGCATG, the switch fluorescence ratio amounted to 0.9966 ± 0.0076.

For the sequence GACCTAGCTA, the switch fluorescence ratio was determined as 1.14 ± 0.053. Turning to TAGGGAGGCA, the switch fluorescence ratio was 1.01 ± 0.028. For GCTACGCAGC, the switch fluorescence ratio worked out at 3.05 ± 1.8. For the sequence TTTAGATTTT, the switch fluorescence ratio was 0.998 ± 0.026. ATCATCGCAG: the switch fluorescence ratio came out at 1.08 ± 0.058. Consider TCTTTTGCCT, for which the switch fluorescence ratio came out at 1.01 ± 0.034. On to GAAAGGGGGT, for which the switch fluorescence ratio worked out at 0.991 ± 0.027. Take ATTCTGGGGG: the switch fluorescence ratio came out at 1.04 ± 0.048.

As for TGGGCGCAGT, the switch fluorescence ratio came to 0.986 ± 0.012. As for GGGATTTTAA, the switch fluorescence ratio stood at 0.9753 ± 0.0091. The value for TGTAGATTGT was 1.01 ± 0.049; that for CTATGAAAAG was 1 ± 0.021; that for TGGTTAACGC was 0.999 ± 0.013. Consider AATAGCGGAA, for which the switch fluorescence ratio worked out at 1 ± 0.015.

As for AAACTTTTAA, the switch fluorescence ratio amounted to 1.01 ± 0.019. TTTGTTTGTT: the switch fluorescence ratio worked out at 0.986 ± 0.02. On to GATCATTTTT, for which the switch fluorescence ratio was found to be 0.984 ± 0.021. On to GAAACTAGTG, for which the switch fluorescence ratio came out at 0.996 ± 0.015. In the case of CAGCTTTTCG, the switch fluorescence ratio stood at 0.998 ± 0.046. With TCATAAAGTT the figure was 0.994 ± 0.034. In the case of GTTGGTCCTT, the switch fluorescence ratio was 0.9928 ± 0.003.

For the sequence ATGGGGTATT, the switch fluorescence ratio was 0.989 ± 0.015. With CCTGTCATGT the figure was 1.02 ± 0.013. The value for ACCGATTTTG was 0.994 ± 0.022; that for GTTGGTGTGT was 0.9667 ± 0.0071. With GTATAAGTTG the figure was 1.02 ± 0.047; with ACGGGGCCGC, 0.994 ± 0.045. In the case of CAAATAAGTT, the switch fluorescence ratio worked out at 1.02 ± 0.029. The value for CTGTTACTGC was 1 ± 0.031; that for CAGGGTCGGC was 0.993 ± 0.035; that for CGTTGCACAT was 1.07 ± 0.016. With TTAACACGTA the figure was 1.2 ± 0.024; with TTTGAGCGTT, 1.01 ± 0.04; with AGACTCCACC, 1.398 ± 0.0081. For the sequence ACCGGGTTTT, the switch fluorescence ratio is 1.03 ± 0.02. With TGGGTGGAAG the figure was 1.042 ± 0.01; with ACATTAAGGG, 1.06 ± 0.031; with CAAATTCTGT, 1.009 ± 0.009. With GGCACAAAAG the figure was 0.983 ± 0.019; with TAGTTAGAAG, 1.08 ± 0.13; with TCCAAACCCC, 1.12 ± 0.046. The value for TTTTGGGATG was 0.978 ± 0.033; that for CTATTAAGGG was 0.976 ± 0.056. For CGGACTTTTC, the switch fluorescence ratio was 1.042 ± 0.0018. The value for CTGGGTAACG was 0.996 ± 0.034; that for TGAATGGGGT was 0.987 ± 0.02. With TAAGGGAAGC the figure was 1.04 ± 0.04; with AGGATTTTTC, 1.03 ± 0.044; with GGGGAGAGGG, 0.984 ± 0.029. With TCCGACTGGT, the switch fluorescence ratio turned out to be 1.127 ± 0.0014. With CATTTGGGTC the figure was 1.013 ± 0.0038; with TCCTAGGGGA, 1.03 ± 0.0033. With GTTACATGTT the figure was 0.993 ± 0.024; with AGATTGTGCA, 0.963 ± 0.011.

For ACTTTGGTAT, the switch fluorescence ratio is 0.982 ± 0.029. CGTGACCTGT: the switch fluorescence ratio was determined as 0.996 ± 0.022. On to TTTATGGCGT, for which the switch fluorescence ratio came out at 1.008 ± 0.0097. Regarding GTTGGATGGT, the switch fluorescence ratio came out at 0.964 ± 0.019. With ATCTGTAAGG the figure was 1.02 ± 0.043.

(Values after the supplement of paper PMC10126150.)
